This is an account of results in patent US20150246136A1 (Bayer, published 2015).

Sequences and labels used below:
B1: Example 76, conjugate of anti-mesothelin antibody MF-Ta (antibody, human IgG1, lambda, V domains shown)
VH: QVELVQSGAEVKKPGESLKISCKGSGYSFTSYWIGWVRQAPGKGLEWMGIIDPGDSRTRYSPSFQGQVTISADKSISTAYLQWSSLKASDTAMYYCARGQLYGGTYMDGWGQGTLVTVSS
VL: DIALTQPASVSGSPGQSITISCTGTSSDIGGYNSVSWYQQHPGKAPKLMIYGVNNRPSGVSNRFSGSKSGNTASLTISGLQAEDEADYYCSSYDIESATPVFGGGTKLTVLG
modifications: toxophore-linker on Cys sulfur, sites not given
B2: Example 79, conjugate of anti-mesothelin antibody MF-Ta (antibody, human IgG1, lambda, V domains shown)
VH: B1 VH
VL: B1 VL
modifications: toxophore-linker on Cys sulfur, sites not given
B3: Example 95, conjugate of anti-mesothelin antibody MF-Ta (antibody, human IgG1, lambda, V domains shown)
VH: B1 VH
VL: B1 VL
modifications: toxophore-linker on Cys sulfur, sites not given
B4: Example 103, conjugate of anti-mesothelin antibody MF-Ta (antibody, human IgG1, lambda, V domains shown)
VH: B1 VH
VL: B1 VL
modifications: toxophore-linker on Cys sulfur, sites not given
B5: Example 78, conjugate of anti-mesothelin antibody MF-Ta (antibody, human IgG1, lambda, V domains shown)
VH: B1 VH
VL: B1 VL
modifications: toxophore-linker on Cys sulfur, sites not given
B6: Example 130, conjugate of anti-mesothelin antibody MF-Ta (antibody, human IgG1, lambda, V domains shown)
VH: B1 VH
VL: B1 VL
modifications: toxophore-linker on Cys sulfur, sites not given
B7: Example 106, conjugate of anti-mesothelin antibody MF-Ta (antibody, human IgG1, lambda, V domains shown)
VH: B1 VH
VL: B1 VL
modifications: toxophore-linker on Cys sulfur, sites not given
B8: Example 114, conjugate of anti-mesothelin antibody MF-Ta (antibody, human IgG1, lambda, V domains shown)
VH: B1 VH
VL: B1 VL
modifications: toxophore-linker on Cys sulfur, sites not given
B9: Example 102, conjugate of anti-mesothelin antibody MF-Ta (antibody, human IgG1, lambda, V domains shown)
VH: B1 VH
VL: B1 VL
modifications: toxophore-linker on Lys NH, sites not given
B10: Example 86, conjugate of anti-mesothelin antibody MF-Ta (antibody, human IgG1, lambda, V domains shown)
VH: B1 VH
VL: B1 VL
modifications: toxophore-linker on Cys sulfur, sites not given
B11: Example 90, conjugate of anti-mesothelin antibody MF-Ta (antibody, human IgG1, lambda, V domains shown)
VH: B1 VH
VL: B1 VL
modifications: toxophore-linker on Cys sulfur, sites not given
B12: Example 100, conjugate of anti-mesothelin antibody MF-Ta (antibody, human IgG1, lambda, V domains shown)
VH: B1 VH
VL: B1 VL
modifications: toxophore-linker on Cys sulfur, sites not given
B13: Example 83, conjugate of anti-mesothelin antibody MF-Ta (antibody, human IgG1, lambda, V domains shown)
VH: B1 VH
VL: B1 VL
modifications: toxophore-linker on Cys sulfur, sites not given
B14: Example 85, conjugate of anti-mesothelin antibody MF-Ta (antibody, human IgG1, lambda, V domains shown)
VH: B1 VH
VL: B1 VL
modifications: toxophore-linker on Cys sulfur, sites not given
B15: Example 84, conjugate of anti-mesothelin antibody MF-Ta (antibody, human IgG1, lambda, V domains shown)
VH: B1 VH
VL: B1 VL
modifications: toxophore-linker on Lys NH, sites not given
B16: Example 87, conjugate of anti-mesothelin antibody MF-Ta (antibody, human IgG1, lambda, V domains shown)
VH: B1 VH
VL: B1 VL
modifications: toxophore-linker on Lys NH, sites not given
B17: Example 88, conjugate of anti-mesothelin antibody MF-Ta (antibody, human IgG1, lambda, V domains shown)
VH: B1 VH
VL: B1 VL
modifications: toxophore-linker on Cys sulfur, sites not given
B18: Example 104, conjugate of anti-mesothelin antibody MF-Ta (antibody, human IgG1, lambda, V domains shown)
VH: B1 VH
VL: B1 VL
modifications: toxophore-linker on Lys NH, sites not given
B19: Example 96, conjugate of anti-mesothelin antibody MF-Ta (antibody, human IgG1, lambda, V domains shown)
VH: B1 VH
VL: B1 VL
modifications: toxophore-linker on Cys sulfur, sites not given
B20: Example 97, conjugate of anti-mesothelin antibody MF-Ta (antibody, human IgG1, lambda, V domains shown)
VH: B1 VH
VL: B1 VL
modifications: toxophore-linker on Cys sulfur, sites not given
B21: Example 94, conjugate of anti-mesothelin antibody MF-Ta (antibody, human IgG1, lambda, V domains shown)
VH: B1 VH
VL: B1 VL
modifications: toxophore-linker on Cys sulfur, sites not given
B22: Example 111, conjugate of anti-mesothelin antibody MF-Ta (antibody, human IgG1, lambda, V domains shown)
VH: B1 VH
VL: B1 VL
modifications: toxophore-linker on Cys sulfur, sites not given
B23: Example 105, conjugate of anti-mesothelin antibody MF-Ta (antibody, human IgG1, lambda, V domains shown)
VH: B1 VH
VL: B1 VL
modifications: toxophore-linker on Lys NH, sites not given
B24: Example 112, conjugate of anti-mesothelin antibody MF-Ta (antibody, human IgG1, lambda, V domains shown)
VH: B1 VH
VL: B1 VL
modifications: toxophore-linker on Cys sulfur, sites not given
B25: Example 115, conjugate of anti-mesothelin antibody MF-Ta (antibody, human IgG1, lambda, V domains shown)
VH: B1 VH
VL: B1 VL
modifications: toxophore-linker on Cys sulfur, sites not given
B26: Example 82, conjugate of anti-mesothelin antibody MF-Ta (antibody, human IgG1, lambda, V domains shown)
VH: B1 VH
VL: B1 VL
modifications: toxophore-linker on Cys sulfur, sites not given
B27: Example 113, conjugate of anti-mesothelin antibody MF-Ta (antibody, human IgG1, lambda, V domains shown)
VH: B1 VH
VL: B1 VL
modifications: toxophore-linker on Lys NH, sites not given
B28: Example 99, conjugate of anti-mesothelin antibody MF-Ta (antibody, human IgG1, lambda, V domains shown)
VH: B1 VH
VL: B1 VL
modifications: toxophore-linker on Cys sulfur, sites not given
B29: Example 107, conjugate of anti-mesothelin antibody MF-Ta (antibody, human IgG1, lambda, V domains shown)
VH: B1 VH
VL: B1 VL
modifications: toxophore-linker on Cys sulfur, sites not given
B30: Example 92, conjugate of anti-mesothelin antibody MF-Ta (antibody, human IgG1, lambda, V domains shown)
VH: B1 VH
VL: B1 VL
modifications: toxophore-linker on Cys sulfur, sites not given
B31: Example 129, conjugate of anti-mesothelin antibody MF-Ta (antibody, human IgG1, lambda, V domains shown)
VH: B1 VH
VL: B1 VL
modifications: toxophore-linker on Cys sulfur, sites not given
B32: Example 98, conjugate of anti-mesothelin antibody MF-Ta (antibody, human IgG1, lambda, V domains shown)
VH: B1 VH
VL: B1 VL
modifications: toxophore-linker on Cys sulfur, sites not given
B33: Example 93, conjugate of anti-mesothelin antibody MF-Ta (antibody, human IgG1, lambda, V domains shown)
VH: B1 VH
VL: B1 VL
modifications: toxophore-linker on Lys NH, sites not given
B34: Example 110, conjugate of anti-mesothelin antibody MF-Ta (antibody, human IgG1, lambda, V domains shown)
VH: B1 VH
VL: B1 VL
modifications: toxophore-linker on Cys sulfur, sites not given
B35: Example 80, conjugate of anti-mesothelin antibody MF-Ta (antibody, human IgG1, lambda, V domains shown)
VH: B1 VH
VL: B1 VL
modifications: toxophore-linker on Cys sulfur, sites not given
B36: Example 89, conjugate of anti-mesothelin antibody MF-Ta (antibody, human IgG1, lambda, V domains shown)
VH: B1 VH
VL: B1 VL
modifications: toxophore-linker on Cys sulfur, sites not given
B37: Example 101, conjugate of anti-mesothelin antibody MF-Ta (antibody, human IgG1, lambda, V domains shown)
VH: B1 VH
VL: B1 VL
modifications: toxophore-linker on Cys sulfur, sites not given
B38: Example 91, conjugate of anti-mesothelin antibody MF-Ta (antibody, human IgG1, lambda, V domains shown)
VH: B1 VH
VL: B1 VL
modifications: toxophore-linker on Cys sulfur, sites not given
B39: Example 77, conjugate of anti-mesothelin antibody MF-Ta (antibody, human IgG1, lambda, V domains shown)
VH: B1 VH
VL: B1 VL
modifications: toxophore-linker on Cys sulfur, sites not given
B40: Example 108, conjugate of anti-mesothelin antibody MF-Ta (antibody, human IgG1, lambda, V domains shown)
VH: B1 VH
VL: B1 VL
modifications: toxophore-linker on Cys sulfur, sites not given
B41: Example 81, conjugate of anti-mesothelin antibody MF-Ta (antibody, human IgG1, lambda, V domains shown)
VH: B1 VH
VL: B1 VL
modifications: toxophore-linker on Cys sulfur, sites not given
B42: Example 109, conjugate of anti-mesothelin antibody MF-Ta (antibody, human IgG1, lambda, V domains shown)
VH: B1 VH
VL: B1 VL
modifications: toxophore-linker on Cys sulfur, sites not given

For this experiment, the target named is Mesothelin (SwissProt reference Q13421-3) (Homo sapiens, UniProt Q13421 37-622). As to the kind of experiment: cell-based or functional assay.
Turning to B1, the “IC50 (nM), HT29 meso+ cells, MTT proliferation assay” value (from here on “IC50 (nM), HT29 meso+ cells”) stood at 0.35 nM. For the molecule B2, the “IC50 (nM), HT29 meso+ cells” value amounted to 0.5 nM. Regarding B3, the “IC50 (nM), HT29 meso+ cells” value is 0.013 nM. To B4 belongs 10 nM. Next, B5: 1.1 nM; B6: 0.13 nM.

For the molecule B7, the “IC50 (nM), HT29 meso+ cells” value came to 0.8 nM.

Turning to B8, the “IC50 (nM), HT29 meso+ cells” value was determined as 0.6 nM.

In the case of B9, the “IC50 (nM), HT29 meso+ cells” value turned out to be 7.2 nM. Take B10: the “IC50 (nM), HT29 meso+ cells” value amounted to 0.45 nM. Next, B11: 2.6 nM; B12: 2 nM. As to B13, the “IC50 (nM), HT29 meso+ cells” value is 0.3 nM. Turning to B14, the “IC50 (nM), HT29 meso+ cells” value worked out at 0.2 nM. Turning to B15, the “IC50 (nM), HT29 meso+ cells” value is 6 nM. Turning to B16, the “IC50 (nM), HT29 meso+ cells” value turned out to be 0.9 nM. Regarding B17, the “IC50 (nM), HT29 meso+ cells” value stood at 0.01 nM.

Consider B18, for which the “IC50 (nM), HT29 meso+ cells” value is 1.8 nM.

In the case of B19, the “IC50 (nM), HT29 meso+ cells” value turned out to be 25 nM.

Take B20: the “IC50 (nM), HT29 meso+ cells” value turned out to be 0.2 nM. For the molecule B21, the “IC50 (nM), HT29 meso+ cells” value was determined as 0.6 nM. On to B22, for which the “IC50 (nM), HT29 meso+ cells” value came to 0.7 nM. Regarding B23, the “IC50 (nM), HT29 meso+ cells” value was found to be 0.6 nM. For the molecule B24, the “IC50 (nM), HT29 meso+ cells” value worked out at 0.018 nM. B25: the “IC50 (nM), HT29 meso+ cells” value came out at 0.06 nM. For B26, the “IC50 (nM), HT29 meso+ cells” value turned out to be 24 nM.

On to B27, for which the “IC50 (nM), HT29 meso+ cells” value was found to be 0.4 nM. As for B28, the “IC50 (nM), HT29 meso+ cells” value worked out at 0.27 nM. For B29, the “IC50 (nM), HT29 meso+ cells” value came to 3 nM.

Consider B30, for which the “IC50 (nM), HT29 meso+ cells” value came to 38 nM. To B31 belongs 5.3 nM. For the molecule B32, the “IC50 (nM), HT29 meso+ cells” value came to 1.7 nM.

On to B33, for which the “IC50 (nM), HT29 meso+ cells” value worked out at 52 nM. B34: the “IC50 (nM), HT29 meso+ cells” value amounted to 0.002 nM. B35: the “IC50 (nM), HT29 meso+ cells” value amounted to 4.4 nM. On to B36, for which the “IC50 (nM), HT29 meso+ cells” value worked out at 0.06 nM. As to B37, the “IC50 (nM), HT29 meso+ cells” value was found to be 3 nM. With B38, the “IC50 (nM), HT29 meso+ cells” value is 0.35 nM. To B39 belongs 0.8 nM; to B40, 0.74 nM. For B41, the “IC50 (nM), HT29 meso+ cells” value came to 0.02 nM. To B42 belongs 0.09 nM.
